{
  "source": "paper PMC8294330",
  "about": "“A cooperative PNPase-Hfq-RNA carrier complex facilitates bacterial riboregulation” (Molecular Cell, 2021)",
  "target": "the molecule itself",
  "assay": "cryo-EM structure; apo PNPase and PNPase with 3'ETSleuZ RNA; 8-12 uM in 20 mM Tris-HCl pH 8, 2.5 mM MgCl2, 150 mM KCl, 1 mM TCEP, 8 mM CHAPSO added before blotting",
  "data": [
    {"protein": "Escherichia coli polynucleotide phosphorylase (PNPase), wild type (enzyme, UniProt P05055 1-711, looked up, polynucleotide phosphorylase (PNPase), Escherichia coli, full-length enzyme with RNase PH core, KH and S1 domains; Preparation follows Bandyra et al., 2016; no tag is named for the purified protein; also called wild-type PNPase; PNPase WT) MLNPIVRKFQYGQHTVTLETGMMARQATAAVMVSMDDTAVFVTVVGQKKAKPGQDFFPLTVNYQERTYAAGRIPGSFFRREGRPSEGETLIARLIDRPIRPLFPEGFVNEVQVIATVVSVNPQVNPDIVAMIGASAALSLSGIPFNGPIGAARVGYINDQYVLNPTQDELKESKLDLVVAGTEAAVLMVESEAQLLSEDQMLGAVVFGHEQQQVVIQNINELVKEAGKPRWDWQPEPVNEALNARVAALAEARLSDAYRITDKQERYAQVDVIKSETIATLLAEDETLDENELGEILHAIEKNVVRSRVLAGEPRIDGREKDMIRGLDVRTGVLPRTHGSALFTRGETQALVTATLGTARDAQVLDELMGERTDTFLFHYNFPPYSVGETGMVGSPKRREIGHGRLAKRGVLAVMPDMDKFPYTVRVVSEITESNGSSSMASVCGASLALMDAGVPIKAAVAGIAMGLVKEGDNYVVLSDILGDEDHLGDMDFKVAGSRDGISALQMDIKIEGITKEIMQVALNQAKGARLHILGVMEQAINAPRGDISEFAPRIHTIKINPDKIKDVIGKGGSVIRALTEETGTTIEIEDDGTVKIAATDGEKAKHAIRRIEEITAEIEVGRVYTGKVTRIVDFGAFVAIGGGKEGLVHISQIADKRVEKVTDYLQMGQEVPVKVLEVDRQGRIRLSIKEATEQSQPAAAPEAPAAEQGE", "values": [
      {"measurement": "stoichiometry N", "result": 3}
    ]}
  ]
}
